Assay results reported in PMC9482650, “Quantitative fragmentomics allow affinity mapping of interactomes” (Nature Communications, 2022).

Tests used:
Assay in all cases: holdup assay
Design in all cases: key: below the threshold = too weak to quantify, mostly under pKd 3.1 to 4
Details in all cases: plain residues with an end cap or a label only (N-terminal biotin on a linker: ado-ado)
MAST1, Q9Y2H9 = biological target: MAST1, Q9Y2H9
PDZRN4_1, Q6ZMN7 = biological target: PDZRN4_1, Q6ZMN7
PTPN13_1, Q12923 = biological target: T1, PTPN13_1, Q12923
T1 sequence (Q12923 1088-1188, limits assumed, looked up): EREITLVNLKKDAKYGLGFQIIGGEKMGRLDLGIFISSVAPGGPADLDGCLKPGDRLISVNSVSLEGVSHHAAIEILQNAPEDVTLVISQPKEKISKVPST

MPDZ_12, O75970 = biological target: T2, MPDZ_12, O75970
T2 sequence (O75970 1857-1958, limits assumed, looked up): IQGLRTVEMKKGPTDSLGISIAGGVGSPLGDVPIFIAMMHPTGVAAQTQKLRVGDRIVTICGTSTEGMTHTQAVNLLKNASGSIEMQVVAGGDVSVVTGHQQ

GRIP1_3, Q9Y3R0 = biological target: T3, GRIP1_3, Q9Y3R0
T3 sequence (Q9Y3R0 247-346, limits assumed, looked up): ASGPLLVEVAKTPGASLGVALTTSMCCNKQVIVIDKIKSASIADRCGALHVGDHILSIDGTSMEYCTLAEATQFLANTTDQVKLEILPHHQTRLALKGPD

DLG4_2, P78352 = biological target: DLG4_2, P78352
Chain of DLG4_2, P78352 (P78352 155-259): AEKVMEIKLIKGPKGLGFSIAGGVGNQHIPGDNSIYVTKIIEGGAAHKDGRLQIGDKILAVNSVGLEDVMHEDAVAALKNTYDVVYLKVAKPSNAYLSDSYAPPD

DFNB31_3, Q9P202 = biological target: T4, DFNB31_3, Q9P202
T4 sequence (Q9P202 811-907, limits assumed, looked up): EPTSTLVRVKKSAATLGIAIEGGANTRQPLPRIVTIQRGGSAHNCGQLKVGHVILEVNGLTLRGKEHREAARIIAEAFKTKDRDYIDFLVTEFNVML

SYNJ2BP, P57105 = biological target: T5, SYNJ2BP, P57105
T5 sequence (P57105 8-110, limits assumed, looked up): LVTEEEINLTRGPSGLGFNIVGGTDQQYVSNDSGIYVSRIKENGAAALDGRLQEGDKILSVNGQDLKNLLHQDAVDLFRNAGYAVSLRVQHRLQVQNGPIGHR

MAGI1_2, Q96QZ7 = biological target: MAGI1_2, Q96QZ7
Chain of MAGI1_2, Q96QZ7 (Q96QZ7 456-580): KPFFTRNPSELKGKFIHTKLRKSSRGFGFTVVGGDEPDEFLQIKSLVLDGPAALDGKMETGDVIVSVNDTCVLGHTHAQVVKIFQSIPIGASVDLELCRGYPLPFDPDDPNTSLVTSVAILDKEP

APBA1_1, Q02410 = biological target: T6, APBA1_1, Q02410
T6 sequence (Q02410 651-752, limits assumed, looked up): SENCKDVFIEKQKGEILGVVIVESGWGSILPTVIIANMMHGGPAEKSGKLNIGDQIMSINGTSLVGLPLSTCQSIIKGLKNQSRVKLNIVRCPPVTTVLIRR

DLG4_3, P78352 = biological target: DLG4_3, P78352
Chain of DLG4_3, P78352 (P78352 306-403): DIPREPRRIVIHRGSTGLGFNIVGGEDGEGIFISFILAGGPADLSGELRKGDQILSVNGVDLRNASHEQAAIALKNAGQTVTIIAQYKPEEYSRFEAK

CASK, O14936 = biological target: CASK, O14936
Chain of CASK, O14936 (O14936 487-570): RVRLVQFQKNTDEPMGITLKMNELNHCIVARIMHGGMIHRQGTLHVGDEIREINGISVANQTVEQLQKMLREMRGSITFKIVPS

FRMPD2_2, Q68DX3 = biological target: FRMPD2_2, Q68DX3
Chain of FRMPD2_2, Q68DX3 (Q68DX3 944-1038): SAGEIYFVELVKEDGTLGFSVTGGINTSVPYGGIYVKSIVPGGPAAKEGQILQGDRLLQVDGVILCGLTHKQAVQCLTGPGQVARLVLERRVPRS

GRID2IP_1, A4D2P6 = biological target: GRID2IP_1, A4D2P6
Chain of GRID2IP_1, A4D2P6 (A4D2P6 1-87): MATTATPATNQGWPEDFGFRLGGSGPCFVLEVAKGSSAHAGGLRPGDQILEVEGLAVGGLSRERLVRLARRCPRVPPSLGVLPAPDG

GRIP1_7, Q9Y3R0 = biological target: T7, GRIP1_7, Q9Y3R0
T7 sequence (Q9Y3R0 999-1096, limits assumed, looked up): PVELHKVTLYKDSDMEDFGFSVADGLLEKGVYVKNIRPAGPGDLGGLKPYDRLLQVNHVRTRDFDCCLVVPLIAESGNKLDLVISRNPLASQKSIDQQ

DFNB31_2, Q9P202 = biological target: T8, DFNB31_2, Q9P202
T8 sequence (Q9P202 274-371, limits assumed, looked up): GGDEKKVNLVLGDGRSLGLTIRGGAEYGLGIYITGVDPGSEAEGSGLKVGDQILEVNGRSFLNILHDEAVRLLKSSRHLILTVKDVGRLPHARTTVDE

SHANK1, Q9Y566 = biological target: T9, SHANK1, Q9Y566
T9 sequence (Q9Y566 658-767, limits assumed, looked up): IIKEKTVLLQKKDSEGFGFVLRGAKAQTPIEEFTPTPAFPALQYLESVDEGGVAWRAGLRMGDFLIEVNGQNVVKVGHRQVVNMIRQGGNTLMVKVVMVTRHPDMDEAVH

APBA2_2, Q99767 = biological target: T10, APBA2_2, Q99767
T10 sequence (Q99767 654-744, limits assumed, looked up): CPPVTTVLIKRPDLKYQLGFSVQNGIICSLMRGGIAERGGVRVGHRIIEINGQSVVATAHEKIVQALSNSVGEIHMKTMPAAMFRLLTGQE

MPP6, Q9NZW5 = biological target: T11, MPP6, Q9NZW5
T11 sequence (Q9NZW5 125-219, limits assumed, looked up): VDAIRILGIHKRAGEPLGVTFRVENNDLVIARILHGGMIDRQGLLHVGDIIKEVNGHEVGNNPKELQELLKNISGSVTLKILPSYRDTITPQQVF

GOPC, Q9HD26 = biological target: GOPC, Q9HD26
GRIP2_3, Q9C0E4 = biological target: GRIP2_3, Q9C0E4
Chain of GRIP2_3, Q9C0E4 (Q9C0E4 238-339): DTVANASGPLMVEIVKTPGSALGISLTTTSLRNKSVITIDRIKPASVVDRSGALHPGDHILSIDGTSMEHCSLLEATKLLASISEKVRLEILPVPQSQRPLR

TJP1_3, Q07157 = biological target: TJP1_3, Q07157
Chain of TJP1_3, Q07157 (Q07157 416-512): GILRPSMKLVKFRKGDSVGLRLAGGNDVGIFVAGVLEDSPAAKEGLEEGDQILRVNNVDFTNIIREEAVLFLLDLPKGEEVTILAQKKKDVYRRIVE

NHERF2_2, Q15599 = biological target: NHERF2_2, Q15599
Chain of NHERF2_2, Q15599 (Q15599 142-238): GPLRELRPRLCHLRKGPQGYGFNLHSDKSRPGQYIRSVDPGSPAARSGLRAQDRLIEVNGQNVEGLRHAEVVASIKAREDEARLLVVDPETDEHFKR

PDZD7_3, Q9H5P4 = biological target: T12, PDZD7_3, Q9H5P4
T12 sequence (Q9H5P4 857-944, limits assumed, looked up): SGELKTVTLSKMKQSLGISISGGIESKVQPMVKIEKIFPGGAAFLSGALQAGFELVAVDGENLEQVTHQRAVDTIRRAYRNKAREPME

Inadl_8, Q8NI35 = biological target: Inadl_8, Q8NI35
Chain of Inadl_8, Q8NI35 (Q8NI35 1425-1530): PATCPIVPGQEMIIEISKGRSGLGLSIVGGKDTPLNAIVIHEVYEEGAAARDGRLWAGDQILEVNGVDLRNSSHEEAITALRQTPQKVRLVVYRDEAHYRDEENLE

MAGI1_1, Q96QZ7 = biological target: MAGI1_1, Q96QZ7
Chain of MAGI1_1, Q96QZ7 (Q96QZ7 1-106): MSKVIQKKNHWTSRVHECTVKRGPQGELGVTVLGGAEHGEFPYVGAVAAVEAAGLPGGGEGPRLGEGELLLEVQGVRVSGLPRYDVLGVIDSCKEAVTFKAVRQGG

Chain of MAST1, Q9Y2H9 (Q9Y2H9 962-1065): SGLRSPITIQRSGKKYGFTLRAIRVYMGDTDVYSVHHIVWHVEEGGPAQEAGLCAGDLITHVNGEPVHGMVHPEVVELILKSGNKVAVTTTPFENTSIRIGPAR
Chain of PDZRN4_1, Q6ZMN7 (Q6ZMN7 213-318): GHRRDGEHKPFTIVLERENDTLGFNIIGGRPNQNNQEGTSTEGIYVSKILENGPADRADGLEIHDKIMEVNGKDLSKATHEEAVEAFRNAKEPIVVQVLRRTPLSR

QHKTQLQTLI [BPIFA2, Q96DR5]
pKd (MAST1, Q9Y2H9): below the threshold | pKd (PDZRN4_1, Q6ZMN7): below the threshold | pKd (PTPN13_1, Q12923): below the threshold | pKd (MPDZ_12, O75970): below the threshold | pKd (GRIP1_3, Q9Y3R0): below the threshold | pKd (DLG4_2, P78352): 4.56 | pKd (DFNB31_3, Q9P202): 4.8 | pKd (SYNJ2BP, P57105): 4.12 | pKd (MAGI1_2, Q96QZ7): 4.32 | pKd (APBA1_1, Q02410): below the threshold | pKd (DLG4_3, P78352): 3.72 | pKd (CASK, O14936): below the threshold | pKd (FRMPD2_2, Q68DX3): below the threshold | pKd (GRID2IP_1, A4D2P6): below the threshold | pKd (GRIP1_7, Q9Y3R0): below the threshold | pKd (DFNB31_2, Q9P202): below the threshold | pKd (SHANK1, Q9Y566): 4.02 | pKd (APBA2_2, Q99767): below the threshold | pKd (MPP6, Q9NZW5): below the threshold | pKd (GOPC, Q9HD26): 4.01 | pKd (GRIP2_3, Q9C0E4): below the threshold | pKd (TJP1_3, Q07157): below the threshold | pKd (NHERF2_2, Q15599): 3.58 | pKd (PDZD7_3, Q9H5P4): 5.15 | pKd (Inadl_8, Q8NI35): 3.54 | pKd (MAGI1_1, Q96QZ7): 3.66

VNKSKLLTDV [KCNA1, Q09470]
pKd (MAST1, Q9Y2H9): 4.3 | pKd (PDZRN4_1, Q6ZMN7): below the threshold | pKd (PTPN13_1, Q12923): below the threshold | pKd (MPDZ_12, O75970): below the threshold | pKd (GRIP1_3, Q9Y3R0): below the threshold | pKd (DLG4_2, P78352): 4.43 | pKd (DFNB31_3, Q9P202): 3.56 | pKd (SYNJ2BP, P57105): 3.72 | pKd (MAGI1_2, Q96QZ7): 4.19 | pKd (APBA1_1, Q02410): below the threshold | pKd (DLG4_3, P78352): 3.53 | pKd (CASK, O14936): below the threshold | pKd (FRMPD2_2, Q68DX3): below the threshold | pKd (GRID2IP_1, A4D2P6): below the threshold | pKd (GRIP1_7, Q9Y3R0): below the threshold | pKd (DFNB31_2, Q9P202): below the threshold | pKd (SHANK1, Q9Y566): below the threshold | pKd (APBA2_2, Q99767): below the threshold | pKd (MPP6, Q9NZW5): below the threshold | pKd (GOPC, Q9HD26): below the threshold | pKd (GRIP2_3, Q9C0E4): below the threshold | pKd (TJP1_3, Q07157): below the threshold | pKd (NHERF2_2, Q15599): below the threshold | pKd (PDZD7_3, Q9H5P4): 4.36 | pKd (Inadl_8, Q8NI35): 3.91 | pKd (MAGI1_1, Q96QZ7): below the threshold

VDSTVKVWTC [TRAF7, Q6Q0C0]
pKd (MAST1, Q9Y2H9): below the threshold | pKd (PDZRN4_1, Q6ZMN7): below the threshold | pKd (PTPN13_1, Q12923): below the threshold | pKd (MPDZ_12, O75970): 3.52 | pKd (GRIP1_3, Q9Y3R0): below the threshold | pKd (DLG4_2, P78352): 3.7 | pKd (DFNB31_3, Q9P202): below the threshold | pKd (SYNJ2BP, P57105): below the threshold | pKd (MAGI1_2, Q96QZ7): below the threshold | pKd (APBA1_1, Q02410): below the threshold | pKd (DLG4_3, P78352): 3.56 | pKd (CASK, O14936): 3.75 | pKd (FRMPD2_2, Q68DX3): below the threshold | pKd (GRID2IP_1, A4D2P6): below the threshold | pKd (GRIP1_7, Q9Y3R0): below the threshold | pKd (DFNB31_2, Q9P202): below the threshold | pKd (SHANK1, Q9Y566): below the threshold | pKd (APBA2_2, Q99767): below the threshold | pKd (MPP6, Q9NZW5): below the threshold | pKd (GOPC, Q9HD26): below the threshold | pKd (GRIP2_3, Q9C0E4): below the threshold | pKd (TJP1_3, Q07157): below the threshold | pKd (NHERF2_2, Q15599): below the threshold | pKd (PDZD7_3, Q9H5P4): below the threshold | pKd (Inadl_8, Q8NI35): below the threshold | pKd (MAGI1_1, Q96QZ7): 3.62
